Results taken from the DeepSol protein solubility set.

Experiment: soluble on expression in E. coli; label from the status in PepcDB or PDB records

Row | Sequence | soluble on expression in E. coli
1 | MGSDKIHHHHHHMDTDLLKTFLEVSRTRHFGKAAENLYLTRSAVSFRVKQLESILGVALFERQRNNIQPTPAGERMLGHAEAVLTAWERAKQDVSLSQLQSTQLAIGAGPNIWDAYLQGYLQGLHVGLPGVALRTEVLPANAMTRQLMDRTLDIAISFDPPKLDQFELVQLGQINLLLVSSLKGQTGTAVLPGQYVKVDWGTAFNIVHAQEYASLPVPTLHTSSARIALDFILNNGGCAFLPEHLVQHALHSGELHHVSGASAISRNVYVAYWAENDRLAQIKQAIDFLRDDGSVFAHATI | not soluble
2 | MGSDKIHHHHHHMDTDLLRAFVTVAECEGFSAAGKVLHRTQSAVSLQIKRLEDQMGESLFERTSRSVVLTPPGGRLLPYARHILKLQDEARRVMGVDRQGELIRLGTSEEQASTYLPELLPRFAARFPEVRLEVSCSISGSLVHDFQEGLLDVALVVRHGPTQTGRLLGREPMVWVVAEDRAIDDWEILPLALNPEGCIFRAHAFAALGPTERRWDVRYSSRSPTGINLPVQAGLAATVKTPRSVPEGCRIVGEEEGLPPLGHVEIEMHRTPGHSSDAFVAFCDELEHIVTATDSLESLEYVAAEG | not soluble
3 | MGSDKIHHHHHHMDTDWSNLAVRLERLLERFERIIDRHDPVLPRDPAFFDGAIAFRWRRSGEQGTFEPVTHPHLPDPADLVGIDLVREDLIRNTAQFMDGYPANNVLLWGERGTGKSTCVKGMLRLFADRGLRLVEVQRDDLMSLPALIAALRSVPRRFILFCDDLSFGEGEGGYRELKALLEGSIEAKPTNILFYATSNRRHLLPERMEDNLSSEIHPEEAVSEKLSLADRFGMALGFYPFSQDVYLSIVERYAEKFALPMEREALRKEAHLWAMYRGSRSGRSARQFIDDLAGRLGVRLNDR | not soluble
4 | MGSDKIHHHHHHMDTMVSNSQTYLKILADLIKIKSVNDHELEVAEYLQDLFQENGIEAKILPLEGQRANLVAEIGEGAPVLAVSGHMDVVDPGNLAAWDNDPFTMTEKDGKLFGRGITDMKAGLAALVIAMIELKKQGLPKKGTIRLLATAGEEVGEEGSAAFYRDHYMEDAAGLLIAEPSTVYGTASEQKGSFDIKFTSKGTSVHSSTPEKGYNALVPLMQLLNEANTYFETIPAGEMGPVRFNIDVLNGGSQINSLPDLATALVNVRTIPEYDNNQVAKQIETFVKSYNANGAQINTDLIMNEFPIATSPSNQLVKIIQSLGKEYAGRDIVVAASPGITDASNLAKDKPHDFPFAVYGPGDGSQHQVNESLPKQMYLDFIEIYQKLFIEFLEK | not soluble
5 | MGSDKIHHHHHHMDVIIDKNSGYCFGVEFAIQMAEDEMATGEPLFCLGDIVHNSMEVERLAKKGLKIIDREELKKLSDCKVLIRAHGEPPETYQLALENNIELVDASCPVVLKLQNRVKASFDAIDSKDGQIVIYGQEGHAEVIGIAGQTGDKAIVITTEKDLDKIDFEKPVTLYSQTTKSTQGFYKMKDLIEARVAEAGKNVDENFEYNDSICRQVSNREPQLRKFSKEFDVVIFVSGKKSSNGKALYGVCKQENERSYFVENETEIEPSWIRATDNVGICGATSTPMWLMEKVQNYIQAHSWN | not soluble
6 | MGSDKIHHHHHHMEALRRRIETQVMSLTGLALGQLDLESPKGDPGLFGPHSISWRVHGDFPSMLVGGISALMLQLLHPLALAGVWDHSNFREDLLGRLRRTSQFISGTTFGATGDAEWLIDKVRTIHLQVTGTAPDGRPYAASDPDLLTWVHVAEVSRFLAAHLRYRNPRLPRAEQDAYYNEIALIAERLGARDVPRSCQQVEDYLQHIRPQLHCDARSHEVIRILLDAPAPSRLAQPVGKLMLHAGIDLLPGWAQALLGLQHGPLQQRLIRLGLRRTAPVLRWAMRDGSAHRAKRRMGID | not soluble
7 | MGSDKIHHHHHHMEAVKTGIEGFDDIFGGFYRGQIILIAGNPGSGKTTFCAKFLYEGARRFGENGLYISIGESKEEFYEYMKKLGMDFEKLEKTGSFKYVEMLAPTSEDALMQLSRELTKNALELKATRIVIDSISPILSMNPETARAILHNALKTISRELKSVVLMTEEMPIGETRIGQGIEEFVVDGVIVLRLEVPEAGAPVRTMSVLKLRGKPLDRAVYNFEIGPPSGVRVLMHGIEELESNIDFNNKIATGIDGFDELLGGGIIRGTATAFVGPSGGGKTVLMLSAAANVAINGENVTYISFEEPRQQIEETLKFLGYGEVEGLEILSLNPRMISLRALYDILSKTVLDHRTMLFIDGLNAIRREFGEAFHRVVRDVVFQMKKNGITVVISLIGGTIKETLLSTIVDNVVELRVVEKDGELRREIAVRKARMSRASNEVKRLVFDGKPAVR | not soluble
8 | MGSDKIHHHHHHMEDILKYLQVHVPFRMLEGGFLDTVIAKGISPEIGFDCAILDATGKDRFREVADRFSDAGLRVTFHAPFMDLRPGAIDPRIREVSRERIQQVFDLVPLFRPRTIVCHPSFDSRYYVSSERKWLENSTLTWSTFVEQAAEFDTLLLLENVYEKEPRQFVHLLTALDSLRVRFCLDTGHCNAFSDAPLSSWLEELGTFLGEVHLHDNDGSRDAHLPIGEGNFPFMELFGFLKTKVNRPILTLEAHSADHLSRTLETLRKNRLFGLI | not soluble
9 | MGSDKIHHHHHHMEERVVVEGLTGGYRPNKPVLHDLHLKIRANELVGLIGLNGAGKSTTIKHILGLMEPHKGSVMINGNTITTDRETYRRSLAYIPETPILYEELTLWEHMELTALAYGIERKAFEERSKLLLDEFRMTKMKHWYPSHFSKGMRQKVMIICAFLIDPPVYIVDEPIVGLDPIGIQSFLQLLATKKKNGAAVLMSTHILATAERYCDRFIILNRGRIVLEGTLESMRAELNMPDATLDDIYIEMTKEESQ | not soluble
10 | MGSDKIHHHHHHMEFEVKKTFGKARLGVMKLHHGAVETPVFMPVGTNASVKLLTPRDLEEAGAEIILSNTFHLMLKPGVEIIKLHRGLHNFMGWKRPILTDSGGFQVFSLPKIRIDDEGVVFRSPIDGSKVFLNPEISMEVQIALGSDICMVFDHCPVPDADYEEVKEATERTYRWALRSKKAFKTENQALFGIVQGGIYPDLRRESALQLTSIGFDGYAIGGLSIGEERSLTLEMTEVTVEFLPEDKPRYFMGGGSPELILELVDRGVDMFDSVFPTRIARHGTALTWNGKLNLKASYNKRSLEPVDERCGCYTCKNFTRSYIHHLFDRGEVLGQILLTIHNINFMISLMKEVRRSIESGTFKELKSKVVEVYSSGGVNV | soluble
11 | MGSDKIHHHHHHMEFTDLQIFIHLSDTKNFTKTATQNHMSPSTLSRQIQRLEDELGKTLFIRDNRQVKLTEYGEKFLQFAKTEWQNWQQFKQQLKDESDELCGEIKLFCSVTASYSHLPHVLKEFRQRYPKVEIQLTTGDPALALELIQAQQVDLALAGKPNNLPSSVVFHKIDDISLSLIAPRVACLATQLLQEKPIDWQQMPFIFPVEGHARQRIEQWLREKQIKHPKIYATVAGHEGIVPMVGLGFGLAMLPDAVIDSSPMNNQISRLNLDKPIEPFELGICTQKRNLEQPLVRAFWAMLE | not soluble
12 | MGSDKIHHHHHHMEFYDIVIVGGGPAGLAAAASAKKNKIDKILILERDCELGGILNQCIHNGFGLHTFKEELTGPEYAGRFIKEVKELGIEYRLNTMVMDISTGDESENGSNDKIVTAMNRTDGLFHIAAKTVILAMGCRERARGALNIPGYRPAGIFSAGTAQRLVNIEGYMPGRKVVILGSGDIGLIMARRMTLEGAKVQVVAELMPYSGGLKRNIVQCLDDFNIPLKLSHTVVDIKGRERVEGITLAQVDEHNKPIEGTEEFYECDTLLLSCGLIPENEISKTAGVELNPVTSGPVVNESLETNVPGVFACGNVLHVHDLVDYVSEEATAAGRHAAEYVKNGGDKSCDGKEISITATGGVRYTVPSTINTAQMDDTVTVRFRVGAVYKNCYIAVYLDDKQLQHRKRPVMAPGEMEQVVLQKKQLIETDNPCTITIKIEEA | not soluble
13 | MGSDKIHHHHHHMEIIAHRGFRGRYPEMTAQAYEKACELPIHGVECDVRLTADGHLACVHDRTLLRIASCGLVVSTATMDQLREHGIITLDELIDILPEDKHLYIETKHPMRYGVMAEEQVALRLRYRGLLHDPRFHLISFSHAAIRRMGRIAPGFDTIYLRREWELRYNPKDFAISRPSAWGLSLAHAKIRPQLIGRDGKKTYMWTVNDADDVRWARDNGVQLLATDYPDVALEALAQ | not soluble
14 | MGSDKIHHHHHHMEISDIIYGQHHIDGVLEELIKSAPVQRLKGIYQGGASFLVNRKWNVTRYEHSIGVMLLIKKLGGTIEEQIAGLLHDVSHTAFSHVVDVVFENQAEDYHENIFQQVIVHSEIPDILQKHGYHTEELLSDDSRWTLLEQPAPELCADRTDYTLRDMYRYGHINLHEAQTFLDHLIVRNGRMFPDSIEAAEWFVSVYYKEVIDFFLNPVNVYGYEYLARALKAALRHDVISAEDLLKTDQEVLNILRASKNEEVLSLLTSIHPGIQVIEDDIQYDFHQKKKMRLIDPSIFLDDKWIKSSGVSEKVRKMGEAAYQKAKKGVYIKILKQ | not soluble
15 | MGSDKIHHHHHHMEIVFVYDAVYPWTKGGVERRLHEVGRRLSNEHNVKWLCVGWWGKEKRIQEGVELIPVCKAQQLYSRGRRTIREAMIFAASLLKKSRIKADVIDCQVFPYLSVFPFATRKELVLTWHEFWGDYWYEYLGKAGFFGKAVERIVAKLKARTIAVSETTRKALESLGIRATVIPNGVDFPRISEIPASSEEWDVIFVGRLIREKNLELLFDAMKLLPELNCLVVGDGPERERLSKIAPANVDFGGSLGYEEVISMMKSSKVFAIPSRREGFGISALEANACGLPVVTIRHQMNAVVEIAEKTGFVAEPHARDFAEKIRLALEMRREMREKCINFAKNFDWEVIARRLEEFYEGVHSPPNEGRAE | not soluble
16 | MGSDKIHHHHHHMEKAERLTGTPDYAVLPGRILDKTLAGRGLQKAEFAERCGHSAKMISEIIAGKAPIMPETALEFERVLGMPASYWLTLESLYRLRLAEQRDRQRLSDQRDWAKRFPIAAMVRLGWIDKPSDRVDEVAKLLAFFGVASVEAWQAMTASAAEQIAYRRSPSFQSAPESVSAWLRRGEMVAGARPCGPFDEAGFRRVLKSVRELTREAPEVFQPSLIERCACVGVAVVFTPELPKTCLSGATRWLSKDKALIQLSLRHKTDDHLWFTFFHEAGHVLLHPKKLILEEKLKKGEAPTPESAQREREANVFAATTLIPRSAWMAFTAAGDFSAPRIRAFAKEHSLSPGIIVGQLQHDSHLSYATTLNSLKTTFRWPAESAVSHPSV | not soluble
17 | MGSDKIHHHHHHMEKAVENFEDLSKEYINGYIERARKAQREFECYTQEQVDKIVKIVGKVVYYNAEYLAKLAVEETGMGVYEDKVAKNKSKAKVIYNNLKDKKSVGIIDIDRETGITKVAKPVGVVAAITPCTNPIVTPMSNAMFALKGRNAIIITPHHKAIGCSTKTVEMINEELEKIGAPENLIQILDQQSRENTRNLISSADVVIATGGMGMVKAAYSSGKPALGVGAGNVQCIIDRDVDIKEAVPKIIAGRIFDNGIICSGEQSVIVAEEMFDKIMDEFKNNKGFIVRDKVQKEAFRNAMFVNKSMNKDAVGQSVHTIAKIAGVEIPEDTKIIVIEADGPGEEDIIAKEKMCPVISAYKYKSFEEGVAIAKANLNVEGKGHSVSIHSNTVKNIEYAGENIEVSRFVINQCCATSAGGSFFNGLAPTNTLGCGSWGNNSISENLDYKHLINISRIAYYMPENEVPTDEELWG | not soluble
18 | MGSDKIHHHHHHMEKLRVIEMIKNNPNIIATIDNPTDEMKLLAIKENGLVLEYINNPTREMQELAIDNNIRAIKFIDNPTEDMMIKAVNEGWSILDYIKNPTDKVIEMAINQAGWAIKYAKNPSEELQLLAVRKNYDSIKFIKQPYESVQEEAVRISYDALRYIDSPSYNAELVAIKNNEAAISFITDLDKNKMLEFLKVNILVIKYILKKVSKDELESVLKEVLSKEDVEEKYIRDFLNCSVIDRNSESIPIDKIMFIYKYGSKTAKKIAVDEKLKIM | not soluble
